Laboratory results as given in patent US20040137579A1, “Protein complexes having factor VIII:C activity and production thereof” (Chiron Corporation, published 2004).

Columns and labels:
[1] = biological target: Factor VIII:C Mr 80 K polypeptide (FVIII-LC) encoded by pSVF8-80 (human) (UniProt P00451)
[2] = biological target: Factor VIII:C Mr 80 K polypeptide (FVIII-LC) encoded by pSVF8-80 (human) (UniProt P00451); remark: listed apart in the source
[3] = biological target: Factor VIII:C Mr 80 K polypeptide (FVIII-LC) encoded by pSVF8-80 (human) (UniProt P00451); remark: listed apart in the source
[4] = biological target: Factor VIII:C Mr 80 K polypeptide (FVIII-LC) encoded by pSVF8-80 (human) (UniProt P00451); remark: listed apart in the source
[5] = biological target: Factor VIII:C Mr 80 K polypeptide (FVIII-LC) encoded by pSVF8-80 (human) (UniProt P00451); remark: listed apart in the source
[6] = biological target: Factor VIII:C Mr 80 K polypeptide (FVIII-LC) encoded by pSVF8-80 (human) (UniProt P00451); remark: listed apart in the source
[7] = biological target: T1, Factor VIII:C 80 K light chain encoded by pSVF8-80KG (human, UniProt P00451); experiment: cell-based or functional assay
T1 chain: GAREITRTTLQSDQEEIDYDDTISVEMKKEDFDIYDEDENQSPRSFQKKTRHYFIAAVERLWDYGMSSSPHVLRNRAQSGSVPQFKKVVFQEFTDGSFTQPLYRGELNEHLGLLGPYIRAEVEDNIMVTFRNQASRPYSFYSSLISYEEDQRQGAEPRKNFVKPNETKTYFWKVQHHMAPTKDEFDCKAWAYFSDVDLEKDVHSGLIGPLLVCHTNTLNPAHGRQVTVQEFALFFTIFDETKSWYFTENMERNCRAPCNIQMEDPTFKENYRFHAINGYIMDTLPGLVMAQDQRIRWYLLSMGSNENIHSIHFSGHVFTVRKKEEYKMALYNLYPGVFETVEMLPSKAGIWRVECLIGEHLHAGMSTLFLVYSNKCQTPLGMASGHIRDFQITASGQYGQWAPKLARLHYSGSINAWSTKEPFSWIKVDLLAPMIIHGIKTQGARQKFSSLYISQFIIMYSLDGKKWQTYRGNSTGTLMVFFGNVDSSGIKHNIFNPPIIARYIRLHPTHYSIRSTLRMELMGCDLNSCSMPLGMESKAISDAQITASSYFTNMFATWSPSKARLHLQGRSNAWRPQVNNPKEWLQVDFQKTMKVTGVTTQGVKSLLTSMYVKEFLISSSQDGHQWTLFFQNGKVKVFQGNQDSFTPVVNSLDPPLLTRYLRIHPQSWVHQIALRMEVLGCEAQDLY

[8] = biological target: T2, Factor VIII:C 80 K light chain encoded by pSVF8-80S (human, UniProt P00451); experiment: cell-based or functional assay
T2 chain: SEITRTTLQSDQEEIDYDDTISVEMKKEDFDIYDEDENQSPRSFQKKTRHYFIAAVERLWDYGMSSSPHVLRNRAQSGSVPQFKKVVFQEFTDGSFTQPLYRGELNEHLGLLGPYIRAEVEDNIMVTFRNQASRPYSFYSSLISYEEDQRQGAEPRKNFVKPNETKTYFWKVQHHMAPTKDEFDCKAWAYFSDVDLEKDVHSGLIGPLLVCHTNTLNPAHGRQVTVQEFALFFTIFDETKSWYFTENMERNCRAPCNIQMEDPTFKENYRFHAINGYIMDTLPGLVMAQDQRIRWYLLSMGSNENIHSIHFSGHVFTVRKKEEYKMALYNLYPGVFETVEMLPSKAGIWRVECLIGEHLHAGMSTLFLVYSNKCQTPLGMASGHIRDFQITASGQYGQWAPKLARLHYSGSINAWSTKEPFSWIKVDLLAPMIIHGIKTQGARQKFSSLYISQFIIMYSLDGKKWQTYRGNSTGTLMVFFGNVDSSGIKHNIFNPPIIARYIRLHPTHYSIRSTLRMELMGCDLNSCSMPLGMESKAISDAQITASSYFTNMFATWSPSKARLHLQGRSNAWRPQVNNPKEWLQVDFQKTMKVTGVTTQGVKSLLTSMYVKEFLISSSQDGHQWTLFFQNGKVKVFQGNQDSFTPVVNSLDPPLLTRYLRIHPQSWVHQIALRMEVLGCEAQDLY

[9] = biological target: T3, Factor VIII:C 80 K light chain encoded by pSVF8-80A (human, UniProt P00451); experiment: cell-based or functional assay
T3 chain: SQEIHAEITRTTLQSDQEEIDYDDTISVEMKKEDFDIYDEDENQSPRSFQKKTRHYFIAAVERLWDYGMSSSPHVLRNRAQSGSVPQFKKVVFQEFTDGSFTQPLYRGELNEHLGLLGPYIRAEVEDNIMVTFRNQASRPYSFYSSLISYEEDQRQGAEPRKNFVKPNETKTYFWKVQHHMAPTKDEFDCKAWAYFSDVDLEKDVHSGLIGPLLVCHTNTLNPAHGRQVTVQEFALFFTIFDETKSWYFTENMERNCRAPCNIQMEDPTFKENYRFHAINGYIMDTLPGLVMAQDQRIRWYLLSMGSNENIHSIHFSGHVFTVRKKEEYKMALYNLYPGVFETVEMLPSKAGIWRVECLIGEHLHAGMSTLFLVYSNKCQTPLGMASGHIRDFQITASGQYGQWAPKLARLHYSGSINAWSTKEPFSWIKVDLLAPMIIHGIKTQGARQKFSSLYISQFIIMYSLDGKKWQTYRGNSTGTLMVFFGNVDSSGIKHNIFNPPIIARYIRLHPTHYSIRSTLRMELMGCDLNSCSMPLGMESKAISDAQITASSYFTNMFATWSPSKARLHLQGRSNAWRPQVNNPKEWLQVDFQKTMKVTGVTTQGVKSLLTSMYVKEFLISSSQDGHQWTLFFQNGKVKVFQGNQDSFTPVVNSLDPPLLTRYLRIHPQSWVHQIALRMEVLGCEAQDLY

[10] = biological target: Factor VIII:C light chain encoded by pSVF8-80AT (alpha1-antitrypsin signal peptide) (human, UniProt P00451); experiment: cell-based or functional assay

1323 amino acid Factor VIII:C heavy chain encoded by pSVF8-160 (from UniProt P00451)
ratio of RIA to COATEST activity [1]: 1.8

1416 amino acid Factor VIII:C heavy chain encoded by pSVF8-170 (from UniProt P00451)
ratio of RIA to COATEST activity [1]: 1.8

Factor VIII:C 92 K heavy chain encoded by pCMVF8-92/6x (from UniProt P00451)
COA (COATEST) mU/mL, cotransfected COS7 cells [2]: 87 mU/mL

Factor VIII:C 92 K heavy chain encoded by pSVF8-92C (from UniProt P00451)
mU COATEST/mL (stable CHO cell line 11-D6) [3]: 43 mU/mL | COA (COATEST) mU/mL, cotransfected COS7 cells [2]: 46 mU/mL

Factor VIII:C Mr 92 K heavy chain encoded by pSVF8-92E (from UniProt P00451)
COATEST (mU/mL) (stable CHO clone 10C2-D2, 0.05 uM methotrexate) [4]: 496 mU/mL | Factor VIII:C activity of medium of COS7 cells cotransfected with pSVF8-80 [5]: 1.65 fold | ratio of RIA to COATEST activity [1]: 7.2

Factor VIII:C Mr 92 K polypeptide (FVIII-HC) encoded by pSVF8-92 (from UniProt P00451)
COATEST Activity mU/mL (medium of cotransfected COS7 cells) [6]: 20.4 mU/mL | COATEST Activity mU/mL (supernatants of separate transfectants mixed) [6]: < 0.1 mU/mL | Coagulation Activity mU/mL (one-stage assay, medium of cotransfected COS7 cells) [6]: 22.5 mU/mL | Coagulation Activity mU/mL (supernatants of separate transfectants mixed) [6]: < 0.9 mU/mL

B1: purified recombinant FVIII:C heavy chains (from full-length human FVIII:C) (other)
chain: ATRRYYLGAVELSWDYMQSDLGELPVDARFPPRVPKSFPFNTSVVYKKTLFVEFTDHLFNIAKPRPPWMGLLGPTIQAEVYDTVVITLKNMASHPVSLHAVGVSYWKASEGAEYDDQTSQREKEDDKVFPGGSHTYVWQVLKENGPMASDPLCLTYSYLSHVDLVKDLNSGLIGALLVCREGSLAKEKTQTLHKFILLFAVFDEGKSWHSETKNSLMQDRDAASARAWPKMHTVNGYVNRSLPGLIGCHRKSVYWHVIGMGTTPEVHSIFLEGHTFLVRNHRQASLEISPITFLTAQTLLMDLGQFLLFCHISSHQHDGMEAYVKVDSCPEEPQLRMKNNEEAEDYDDDLTDSEMDVVRFDDDNSPSFIQIRSVAKKHPKTWVHYIAAEEEDWDYAPLVLAPDDRSYKSQYLNNGPQRIGRKYKKVRFMAYTDETFKTREAIQHESGILGPLLYGEVGDTLLIIFKNQASRPYNIYPHGITDVRPLYSRRLPKGVKHLKDFPILPGEIFKYKWTVTVEDGPTKSDPRCLTRYYSSFVNMERDLASGLIGPLLICYKESVDQRGNQIMSDKRNVILFSVFDENRSWYLTENIQRFLPNPAGVQLEDPEFQASNIMHSINGYVFDSLQLSVCLHEVAYWYILSIGAQTDFLSVFFSGYTFKHKMVYEDTLTLFPFSGETVFMSMENPGLWILGCHNSDFRNRGMTALLKVSSCDKNTGDYYEDSYEDISAYLLSKNNAIEPR
Percent Control Activity (COATEST after in vitro combination of purified chains) [7]: 233 percent of control activity | Percent Control Activity (COATEST after in vitro combination of purified chains) [8]: 51 percent of control activity | Percent Control Activity (COATEST after in vitro combination of purified chains) [9]: 92 percent of control activity | Percent Control Activity (COATEST after in vitro combination of purified chains) [10]: 86 percent of control activity
